This passage reports Kd results from paper PMC3188500.

The data set addresses TATA binding protein (TBP) (UniProt P20226). Put plainly: fluorescence (FAM/BHQ transcription factor beacon titration). To be noted: 5 mM MgCl2; no depletant; value stated in text next to ref 35, may come from it; internal BHQ after the T at position 20; 50 mM sodium phosphate pH 7.0, 150 mM NaCl, 5 mM MgCl2, 25 °C; 10 nM labeled TF switch.
Sequence of UniProt P20226 (P20226 whole entry): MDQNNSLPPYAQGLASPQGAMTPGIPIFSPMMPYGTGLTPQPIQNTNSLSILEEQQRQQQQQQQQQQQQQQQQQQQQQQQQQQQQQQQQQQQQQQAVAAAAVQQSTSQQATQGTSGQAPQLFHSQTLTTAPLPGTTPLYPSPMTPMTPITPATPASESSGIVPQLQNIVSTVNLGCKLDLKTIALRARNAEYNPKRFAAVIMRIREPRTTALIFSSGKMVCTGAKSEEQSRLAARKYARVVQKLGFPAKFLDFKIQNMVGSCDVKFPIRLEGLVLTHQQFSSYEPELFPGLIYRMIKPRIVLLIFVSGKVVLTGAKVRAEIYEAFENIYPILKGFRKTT

For the sequence “TACTTTTATATAAATAAGTTGTGATTTTTATATATTTCAC [TFprobe (transcription factor beacon/switch)]”, the Kd (as a rule, the concentration at which binding is half-saturated) was found to be 45 nM.
